How the values were obtained:
[1] = molecular target: T1, murine CXCL12 (mouse, UniProt P40224 22-89); assay: SPR, R17 on CM5 chip
T1 construct: also called mCXCL12

[2] = molecular target: T2, murine IL-6 (mouse, UniProt P08505 25-211); assay: SPR, R17 on CM5 chip
T2 construct: also called mIL-6
T2 sequence: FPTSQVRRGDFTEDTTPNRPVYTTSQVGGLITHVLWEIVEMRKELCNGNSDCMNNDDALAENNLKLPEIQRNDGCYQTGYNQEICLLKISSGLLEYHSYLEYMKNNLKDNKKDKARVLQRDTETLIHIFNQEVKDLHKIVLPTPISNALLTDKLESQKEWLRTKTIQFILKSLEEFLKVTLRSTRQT

[3] = molecular target: T3, murine IL-13 (mouse, UniProt P20109 21-131); assay: SPR, R17 on CM5 chip
T3 construct: also called mIL-13
T3 sequence: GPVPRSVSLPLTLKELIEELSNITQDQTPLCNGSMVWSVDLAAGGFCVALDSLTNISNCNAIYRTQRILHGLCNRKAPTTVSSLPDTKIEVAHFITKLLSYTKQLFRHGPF

[4] = molecular target: T4, murine CXCL2 (mouse, UniProt P10889 28-100); assay: SPR, R17 on CM5 chip
T4 construct: also called mCXCL2
T4 sequence: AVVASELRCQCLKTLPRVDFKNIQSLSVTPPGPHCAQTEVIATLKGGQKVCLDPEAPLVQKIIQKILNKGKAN

[5] = molecular target: T5, murine CXCL1 (mouse, UniProt P12850 25-96); assay: SPR, R17 on CM5 chip
T5 construct: also called mCXCL1
T5 sequence: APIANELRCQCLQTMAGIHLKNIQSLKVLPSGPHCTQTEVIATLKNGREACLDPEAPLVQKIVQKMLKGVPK

[6] = molecular target: T6, murine IL-17 (mouse, UniProt Q62386 26-158); assay: SPR, R17 on CM5 chip
T6 construct: also called mIL-17
T6 sequence: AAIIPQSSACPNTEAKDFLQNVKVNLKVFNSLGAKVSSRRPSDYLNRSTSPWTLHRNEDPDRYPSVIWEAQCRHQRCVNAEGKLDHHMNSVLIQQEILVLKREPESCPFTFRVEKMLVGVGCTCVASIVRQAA

[7] = molecular target: T7, human CCL2 (human, UniProt P13500 24-99); assay: SPR, R17 on CM5 chip
T7 construct: also called hCCL2

[8] = molecular target: T8, murine CCL24 (mouse, UniProt Q9JKC0 27-119); assay: SPR, R17 on CM5 chip
T8 construct: also called mCCL24
T8 sequence: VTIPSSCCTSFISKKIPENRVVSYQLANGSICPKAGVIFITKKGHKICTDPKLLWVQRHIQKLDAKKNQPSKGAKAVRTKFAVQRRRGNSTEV

[9] = molecular target: T9, human CCL3 (human, UniProt P10147 23-92); assay: SPR, R17 on CM5 chip
T9 construct: also called hCCL3
T9 sequence: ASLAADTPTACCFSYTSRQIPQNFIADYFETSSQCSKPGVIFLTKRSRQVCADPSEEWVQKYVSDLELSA

[10] = molecular target: T10, murine IL-12 (mouse, UniProt P43431 23-215; P43432 23-335); assay: SPR, R17 on CM5 chip
T10 construct: also called mIL-12
T10 sequence 1: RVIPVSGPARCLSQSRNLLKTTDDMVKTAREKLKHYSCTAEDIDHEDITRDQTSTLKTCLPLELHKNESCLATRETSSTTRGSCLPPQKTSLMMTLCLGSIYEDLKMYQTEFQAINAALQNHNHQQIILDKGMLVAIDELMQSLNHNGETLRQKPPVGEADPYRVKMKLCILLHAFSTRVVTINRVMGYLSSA
T10 sequence 2: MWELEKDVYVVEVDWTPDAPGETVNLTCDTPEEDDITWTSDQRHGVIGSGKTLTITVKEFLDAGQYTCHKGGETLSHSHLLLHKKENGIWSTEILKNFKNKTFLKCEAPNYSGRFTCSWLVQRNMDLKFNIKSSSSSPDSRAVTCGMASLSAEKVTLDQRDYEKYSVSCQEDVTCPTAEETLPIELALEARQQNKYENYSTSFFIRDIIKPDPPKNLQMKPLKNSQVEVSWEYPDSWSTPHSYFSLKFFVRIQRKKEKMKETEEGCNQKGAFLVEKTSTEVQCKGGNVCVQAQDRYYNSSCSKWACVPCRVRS

[11] = molecular target: T11, murine CCL21 (mouse, UniProt P84444 24-133); assay: SPR, R17 on CM5 chip
T11 construct: also called mCCL21
T11 sequence: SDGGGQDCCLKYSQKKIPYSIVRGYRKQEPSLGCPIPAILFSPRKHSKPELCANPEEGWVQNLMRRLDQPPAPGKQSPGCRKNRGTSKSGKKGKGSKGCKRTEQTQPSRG

[12] = molecular target: T12, murine CXCL9 (mouse, UniProt P18340 22-126); assay: SPR, R17 on CM5 chip
T12 construct: also called mCXCL9
T12 sequence: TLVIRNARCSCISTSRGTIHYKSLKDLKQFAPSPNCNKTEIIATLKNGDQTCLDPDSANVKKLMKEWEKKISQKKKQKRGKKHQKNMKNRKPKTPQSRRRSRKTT

[13] = molecular target: T13, murine CXCL10 (mouse, UniProt P17515 22-98); assay: SPR, R17 on CM5 chip
T13 construct: also called mCXCL10
T13 sequence: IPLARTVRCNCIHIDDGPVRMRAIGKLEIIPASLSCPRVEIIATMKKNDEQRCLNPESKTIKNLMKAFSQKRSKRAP

[14] = molecular target: T7, human CCL2; assay: SPR saturation binding (KD,eq), R17 on CM5 chip
[15] = molecular target: T9, human CCL3; assay: SPR saturation binding (KD,eq), R17 on CM5 chip
[16] = molecular target: T14, murine CCL2 (mouse, UniProt P10148 24-148); assay: SPR, R17 on CM5 chip; KD,kin = kd/ka from the global fit
T14 construct: also called mCCL2

[17] = molecular target: T15, CCL9 (UniProt P51670 22-122); assay: as above
T15 sequence: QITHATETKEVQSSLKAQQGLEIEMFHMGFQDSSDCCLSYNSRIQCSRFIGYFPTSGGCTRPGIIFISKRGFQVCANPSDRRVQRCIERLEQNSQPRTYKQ

[18] = molecular target: T7, human CCL2; assay: as above

T7 sequence (P13500 24-99 limits assumed): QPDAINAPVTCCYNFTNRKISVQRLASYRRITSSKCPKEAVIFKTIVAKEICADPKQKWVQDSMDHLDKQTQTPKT
T1 sequence (P40224 22-89 limits assumed): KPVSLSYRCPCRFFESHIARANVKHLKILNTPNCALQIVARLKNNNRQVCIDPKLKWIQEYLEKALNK
T14 sequence (P10148 24-148 limits assumed): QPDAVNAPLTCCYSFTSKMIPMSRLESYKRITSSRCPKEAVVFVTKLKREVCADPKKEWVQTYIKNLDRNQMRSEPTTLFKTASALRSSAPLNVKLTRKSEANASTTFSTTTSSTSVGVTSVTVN

B1: R17 chemokine decoy receptor of Rodent herpesvirus Peru (RHVP), wild type, C-terminal 8-His fusion (receptor)
chain: GPVGEPVASEINEASKVSSRLLTQDILFRKDRQATISLPIKLPVEDIITQTCDKITYGPLKFLDLLEKETAVLPLSTDITCPACLGRAVLVGKWECPAHVAVNESDLTVFGPNKEEHVPQFVTVQQPSDGKMQRLFFAKFLGTEESLAVLRVPGPDGHLCIQEALIHFKELSGAGVCSLWKANDSREEGLEMKQVDCLETTVLENQTCIATTLSKKIYHRLYCGERLMTGGQVSTRVLLTALGFYKRQPYTFHRVPKGMVYVHLIDSGSEDYMEYSECEEVTPGRYEDKQISYTFYTDLFQTADGEPVLASVWGTSGLKDSAYESCAFVIPTKGRRKLVPRRIMSKCYPFRLTYHPSTMTVRLDVRVEKHHGATDQGFVFLKMESGTYSEGREYYLDRVLWGEDSSTNNVLQ
notes: not shown: C-terminal 8-His tag
**Q.** Which results are given for B1?
**A.** binding result [1]: no binding; binding result [2]: no binding; binding result [3]: no binding; binding result [4]: no binding; binding result [5]: no binding; binding result [6]: no binding; complex half-life (t1/2) [7]: 0.035 min; complex half-life [8]: > 10 min; apparent complex half-life (t1/2,app) [9]: > 16.7 min; binding result [10]: no binding; binding result [11]: no binding; binding result [12]: no binding; binding result [13]: no binding; Kd [14]: 12 nM; Kd [15]: 1.4 nM; Kd [16]: 6.7 nM; Kd [17]: 4.5 nM; Kd [18]: 7.5 nM

— patent US20200164032A1 (WASHINGTON UNIVERSITY, published 2020)
